Source: patent publication US20230348588A1 (published 2023)

Biological target: extracellular domain (ECD) of recombinant human Sortilin with a C-terminal HIS tag (ECD-huSortilin-HIS) (UniProt Q99523 78-755)
Experiment: ELISA

Sequence of extracellular domain (ECD) of recombinant human Sortilin with a C-terminal HIS tag (ECD-huSortilin-HIS) (Q99523 78-755): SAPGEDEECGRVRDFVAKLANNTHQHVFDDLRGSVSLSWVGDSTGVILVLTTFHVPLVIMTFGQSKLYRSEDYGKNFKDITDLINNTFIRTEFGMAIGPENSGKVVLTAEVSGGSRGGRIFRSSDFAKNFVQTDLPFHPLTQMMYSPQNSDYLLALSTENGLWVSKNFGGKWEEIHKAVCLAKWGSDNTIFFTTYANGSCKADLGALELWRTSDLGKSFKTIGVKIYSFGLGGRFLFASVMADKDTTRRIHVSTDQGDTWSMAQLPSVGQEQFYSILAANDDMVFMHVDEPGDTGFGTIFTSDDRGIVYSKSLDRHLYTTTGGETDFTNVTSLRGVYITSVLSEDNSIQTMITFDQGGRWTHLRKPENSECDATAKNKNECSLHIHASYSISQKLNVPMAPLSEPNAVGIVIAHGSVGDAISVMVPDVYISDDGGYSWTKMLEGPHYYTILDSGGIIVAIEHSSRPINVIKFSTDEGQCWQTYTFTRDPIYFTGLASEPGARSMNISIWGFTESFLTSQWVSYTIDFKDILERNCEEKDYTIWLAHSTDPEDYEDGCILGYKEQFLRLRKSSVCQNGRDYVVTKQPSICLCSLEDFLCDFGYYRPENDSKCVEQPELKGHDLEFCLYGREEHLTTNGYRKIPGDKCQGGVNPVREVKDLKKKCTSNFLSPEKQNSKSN

B1: mouse monoclonal antibody 4N2 (antibody, V domains shown)
VH: EVKLVESGGGLVKPGGSLKLSCGASGFTFSNYVMSWVRQTPERRLEWVATISGGGRYSYYPDSVKGRFTISRDNAKNNLYLQMSSLRSEDTALYYCGRQDDYDSFPYCGQGTLVTVSV
VL: DILLTQSPAILSVSLGERVSFSCRASQSIGTSIHWFQLRTNGSPRLLIKYASEPISGIPSRFSGSGSGTDFTLSINSVESEDIADYFCQQSKSWPITFGTGTKLELK
EC50: 5.8 nM
